Source: patent US20200347136A1 (published 2020)
Bridge positions count the residues as written; N and C are the ends. Square brackets hold non-standard residues; d marks the D form. DBF = dibenzofuran moiety used in place of Pro-Pro

Tests used:
[1] = target: T1, CD58 expressed on OVCAR-3 and HFLS-RA cells (human, UniProt P19256 29-250); assay: cell-based or functional assay
T1 sequence (looked up): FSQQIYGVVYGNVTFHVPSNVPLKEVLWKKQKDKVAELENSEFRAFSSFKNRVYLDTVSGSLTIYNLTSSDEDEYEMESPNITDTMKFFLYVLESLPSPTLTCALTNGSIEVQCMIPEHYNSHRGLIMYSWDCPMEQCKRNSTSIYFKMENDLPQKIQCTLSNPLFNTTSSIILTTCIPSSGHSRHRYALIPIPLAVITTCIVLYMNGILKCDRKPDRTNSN

[2] = target: CD58 expressed on sheep red blood cells (SRBC) (sheep); assay: cell-based or functional assay

## cyclo(CKSA[DBF]SCAYDGDD) (disulfide 1-7 (inferred)) [SFTI-DBF]
[1]
  IC50, inhibition of adhesion between Jurkat and HFLS-RA cells: 3 nM
  IC50, inhibition of adhesion between Jurkat and OVCAR-3 cells: 0.61 nM

B1: SFTI-a (peptide)
peptide: cyclo(CKASAPPSCYDGDD)
modifications: disulfide 1-9
SMILES: C[C@@H]1NC(=O)[C@H](CCCCN)NC(=O)[C@@H]2CSSC[C@H](NC(=O)[C@H](CO)NC(=O)[C@@H]3CCCN3C(=O)[C@@H]3CCCN3C(=O)[C@H](C)NC(=O)[C@H](CO)NC1=O)C(=O)N[C@@H](Cc1ccc(O)cc1)C(=O)N[C@@H](CC(=O)O)C(=O)NCC(=O)N[C@@H](CC(=O)O)C(=O)N[C@@H](CC(=O)O)C(=O)N2
[1]
  IC50, cell adhesion (PPI) inhibition: 51 nM

## cyclo(SIYD[dP]PDDIK) [Peptide 6]
[2]
  IC50, inhibition of E-rosette formation: 9.4 nM

B2: SFTI-a1 (peptide)
peptide: cyclo(CKSAPPSCAYDGDD)
modifications: disulfide 1-8
SMILES: C[C@@H]1NC(=O)[C@@H]2CSSC[C@H](NC(=O)[C@H](CC(=O)O)NC(=O)[C@H](CC(=O)O)NC(=O)CNC(=O)[C@H](CC(=O)O)NC(=O)[C@H](Cc3ccc(O)cc3)NC1=O)C(=O)N[C@@H](CCCCN)C(=O)N[C@@H](CO)C(=O)N[C@@H](C)C(=O)N1CCC[C@H]1C(=O)N1CCC[C@H]1C(=O)N[C@@H](CO)C(=O)N2
[1]
  IC50, cell adhesion inhibition: 22 nM
